Experiment: soluble on expression in E. coli; label from the status in PepcDB or PDB records

Sequence	soluble on expression in E. coli
MIVTLLGTGDSPGTPILNCHCRTCEDARRKGWERKRFSVMVQNNGKTVLIDTSPDLRRQLLDCGVEKVDAVIWTHCHFDHFGGFGEFYRVQNNVKVYSTPQIHEDIGHFMKFMSYKPVEVEAFENFTIAGMDFTLLPVNHPPVSAVGVKVEWKGYKVVVSGDTNVRIPEATLREMQNPDLLIVEALAPTGRFRKHMNAKEALELAKRLNAGKVVLTHLGHFFPPHHLAIKSYPVGEDYQSFSFGEGRLDEFFGDLEHHHHHH	not soluble
MIVVVNEQQVEVDEQTTIAALLDSLGFGDRGIAVALNFSVLPRSDWATKICELRKPVRLEVVTAVQGG	soluble
MIVYGLYKSPFGPITVAKNEKGFVMLDFCDCAERSSLDNDYFTDFFYKLDLYFEGKKVDLTEPVDFKPFNEFRIRVFKEVMRIKWGEVRTYKQVADAVKTSPRAVGTALSKNNVLLIIPCHRVIGEKSLGGYSRGVELKRKLLELEGIDVAKFIEK	soluble
MIWLVLVLSLFLFSCEKLNEIFLEEDLLQRPPSKRCSDCHAKIYEDWEKSRHAKAWVSEHFKEESENYSKLKCLSCHAPHQVDPLKKPVLRVERRHEGVNCIACHFKEETKAMHGPYKVFSPPHPSREDKNYTKSEICAGCHQKTYREWKIARVKTTCQQCHMKVVDYAWIMDKFPFFLFHSRKALHDHTFPAGKATPKDIKLILTEGALNIINVGIPHNLPTADQGNPKLYLIIEFYYKDGKKKVLRRVLSPQAKTALAYLIPYTVKIPRYEKLEKVRVSIYRRLAWEKKRELILSEELKKPF	not soluble
MIYRKATEKDIAQLVELRKKQLEDEGIAPINNIDTELTHFFELSFKKNSFISWISEEDNEIIATSGVCFYKYPPSYLNPSGKVAYITNMYTKYEYRSRGIALALLKLVILEAKKRDYLFLRLHASDMGRPIYEEIGFKPFDDFMEMNLSLNRNGELEHHHHHH	soluble
MIYTVTLNPSIDYVVQVNSLDLGAVNRAEKDMKFPGGKGINVSRVLHRLGVENVALGFTGGFTGRFIKDVLQTEGVITNFVQVDGDSRINVKIKGQEETELNGQGPSVTNEQFEQLMKQIESMQKGDYVVLAGSVPASIPTTFYESIAAFGAEKGIRVVVDASGSALQHVVKNKPFLIKPNHHELGELFGVEISTAEDILPYGRKLIEQGVEHVIVSMAGDGALLFTAEGIYEATVPKGVVINSVGAGDSLVAGFVGKYEQTKDIEKAFQYGVATGSATAFSADLCEKEKVEELLSQVIVTKR	not soluble
MKAKREALISLFHAIKEEKVDSDIIDLLLLINSIKGIYTTSSCSGRIGILEEPSLGAKPLSRWLIKVHRPMSFEEARDALKRAREGLIFLKSQPPIFHVVAETIENAKLVHEIGLASGFKYTTFKAISSRFLVEINGTEYLTVPLGKDGRIIASDEYLKFAISIGNKMLERGKSKLPRLRDNFEKIKKKLGEDPLFIQLKREILEI	soluble
MKARQQKYCDKIANFWCHPTGKIIMSLAGKKIVLGVSGGIAAYKTPELVRRLRDRGADVRVAMTEAAKAFITPLSLQAVSGYPVSDSLLDPAAEAAMGHIELGKWADLVILAPATADLIARVAAGMANDLVSTICLATPAPVAVLPAMNQQMYRAAATQHNLEVLASRGLLIWGPDSGSQACGDIGPGRMLDPLTIVDMAVAHFSPVNDLKHLNIMITAGPTREPLDPVRYISNHSSGKMGFAIAAAAARRGANVTLVSGPVSLPTPPFVKRVDVMTALEMEAAVNASVQQQNIFIGCAAVADYRAATVAPEKIKKQATQGDELTIKMVKNPDIVAGVAALKDHRPYVVGFAAETNNVEEYARQKRIRKNLDLICANDVSQPTQGFNSDNNALHLFWQDGDKVLPLERKELLGQLLLDEIVTRYDEKNRR	not soluble
MKATSEELAIFVAVVESGSFSRAAEQLGQANSAVSRAVKKLEMKLGVSLLNRTTRQLSLTEEGERYFRRVQQILQEMAAAETEIMESRNTPRGLLRIDAATPVMLHFLMPLIKPFRERYPEITLSLVSSETFINLIERKVDVAIRAGTLTDSSLRARPLFTSYRKIIASPDYIARFGKPETVEELKRHLCLGFSEPVSLNTWPIACSDGQLHEIKCGISSNSGETLKQLCLNGNGIACLSDYMIDKEIARGELVELLADKRLPVEMPFSAVYYSDRAVSTRIRAFIDFLSEYIRTAPAGAVKEG	not soluble
MKAVVFDFDGTMLDTENLWYTETMKYLKDTYNIDLPDEIYQQIIGTSEEPIISYMMEATNGAFDKEAFLTTVAEACHLGQQSLGFRNGFKEFFEQVKANGYKIGLATSSGFDWIEPTLDRLGILADFETIQTADHVEEIKPHPALYLQAVEALGVKPEEAIAIEDSKNGALSALQAGLKVYIVPNEATKNITFPKEATVVSSFAEIKLK	not soluble
MKAYDIEIVNDAAHAGEANHGWCFGLPPGIRPEQWPLDPDTGYPLMHGFTLLLPEDYRVHGPEIVALSFFSLAPDQNDGGPTSVDGIREMLIDPPAQPPAEAELRPFWEAGRNSHPRLHRMEDILGGAYALILLDAAEFSGAPCQPRALPAGNPLLAQTEPPQWLEAGSAASFVPDWAEDDYYLLRALGGRPAAGHQQRYPLRWTARAQDPNAGVVPSEYGDGGYQLPHYWLDGKIERDNYREHPWVEGHLPNHIGGTMRPVQGVPEMSPFYVEFEEYLGGYNFGGGNAQLDFRDMRFDWACG	not soluble
MKCAICDSVALSLHFGAPSCKACAAFFRRTVALDITYDCITGTLDCEVNFERRMACKRCRYQKCIDNNMQRYLVQSKKGRPDASTANGIENPTTSASPSIPSPFSPPCPSSHNSAPSGLLSPMETDEIQKLNEHFFKMDSNLNKSRRMAFTDSRLLDIFSGVCKMPFEKHQLQPFDFRSYRGYQKQEYVMLFNYANTLPGFQELSNASQNFLFRIACGVDYVISSSYYTLCIGTESNLLINQDGTYIQMMPLPLMGDEPGTELMFTRKEELEKYRNIIKPRVNSWLEFIPLFKSLELSFEENAILKALCCWQTAHFKLEECDKENVRKQKSLLVQCLLKFCIDTYGEEEGPARAGNIILFSSSISVSLMGTSRNVVYGLKLPYISKS	not soluble
MKCPYCGHPDTRVVDSRPSDEGMAIRRRRECPSCGRRFTTYERTQLEPLMVVKRDGRKEPFNPDKLLRGLLLACEKRPVSEEVLRRFAYTFEDQVSGPEITSEEIGLKALAFLKELDHVAYIRFASVYREFDSVERFIEEIRSLASLN	soluble
MKCTECSHEAGVSSFRYLYNARIDAPITLRQCPQCQAWLAVDEMAGEARQRVDAGEAPWGKSAGIEGLAEDAR	not soluble
MKCTKCGKPASVKLRHYNIKLCKEHFNEFIEQRVEKAIKKFKMFGRNSKILIAVSGGKDSVSLWHMLKKLGYEVDALFIRAGKSGMVQKAQEIVEKNAELLNTKLHIVDATEYFGGLSTQEISIMLRRPVCSICGVVRRYLMNKFAYENGYDVVVTGHNLNDEASVLLGNILHWQEGYLERQWPLLPKTHEKLVPKAKPLVLNYEEDIKLYATLNEIPHLEMACPFSVGATSLVYKKILRELEEEQPGITLNFYLGFLKRKKEPKFEVEGLRECKECGYPTTAEVCSFCRLRKQVEKRKNKTPA	soluble
MKDDKTILILTAQFGAGHISAAKAVKECIIEKYSNYNVVIQNFINASIPMMNKPMVKLYENNTKYTPGLYNYYYYFKKSFDSRHDLSHKLYTPKLSEYIADINPDLIISTFPLAAACVNNFKIKNPDINIPTLTVITDVVDSMEWVFENTDLYFVPSPEIKNRFFQKGINPDSIKVTGVPLEHHHHHH	not soluble
MKDFPIRFVLTDEAITPSAGLALVGYLLHQTKLNKRVNALRPPTVRRDVHISHSDVIRSMIGLLATGKTDFDHIEAYRQDDIFSTSMGIQHVPSSPTLRQRLDQLACLPMTETILWEESMRLLIQRHATLSPCWAKGKTTWLPLDIDGSPFDNSDTKKEGVSRTYKGFDGFTPLFAYAGKEGYIVHAELRPGKQHVQDNMPSFLTTAIRRARQLTSSRLLVRMDAGNDAEANVHVCLKEDVDFVIKRNLRRESKALWFQIASQKGKRVDDGQTEGVQTYELCLPQTAAIDGNTYTYVQVTQVTERTMERNGQVMLVPNYEVESYWVRLKGYEHVRMSDVLALYHDHATCEQFHSELKSDLDLERLPSGKMKTNALVLVMGAFVYNLLRLIGQDLLSDPRHPLHHKVKRRRIKTIIQTVITMAGRLVRRSRQLWMKLTRRSGYSILLLNVYQKWKEAR	not soluble
MKDKDLLVLAAKAADDKRAEDMVVLNMQGISPIADYFIICHGNSDKQVQAIAREIKAKAHEFQIDVQRMEGFDEARWVLVDLGDVVAHVFHKDERNHYNLERLWGDVPREDITEELGQLEHHHHHH	not soluble
MKEAGILFEELVSIMEKLRSPEGCEWDRKQTHESLKPYLIEECYELIEAIDEKNDDMMKEELGDVLLQVVFHAQIARERGAFTIEDVIRTLNEKLIRRHPHVFGDSPGYSYKQWEDIKAQEKGKKKSSRIGEINPLVPALSMARRIQENASQVGFDWKDPEGVYEKIEEELKELKEAKDPRELEEEFGDLLFSIVNLSRFLNVDPESALRKATRKFVERFKKMEELIEKDGLVLEELPIEKLDEYWEKAKGGDET	soluble
MKEAMNNHKKLGILLANLGTPQAPTSQAVKAFLSQFLHDQRVVDMSRWLWCPLLHGIILPTRSPKVAKLYQSIWMDEGSPLMVYSRRQRDKLAELSQRPVELGMTYGEPSLLEGVRKLQQQGVEQIVVLPLYPQYSATTTAAVFDGLAKALRQLPVVPELHFIRDYHDHPLYIQALAKSVRASWQQHGQGDLLLCSYHGIPKRYAQNGDIYPEHCLKTTELLAQALGLPQDKVMMTYQSQFGKEEWLQPYTDKTMEALPRQGIKKLDVICPAFSVDCLETLEEIAEQNQEIFLHSGGEAFHYVPCLNDSQSHIELMAALVKVDC	not soluble
MKEEKRSSTGFLVKQRAFLKLYMITMTEQERLYGLKLLEVLRSEFKEIGFKPNHTEVYRSLHELLDDGILKQIKVKKEGAKLQEVVLYQFKDYEAAKLYKKQLKVELDRSKKLIEKALSDNF	soluble
MKEIKIGLIGFGTIGTGVAKLLQANAGLIADKVGAMVTLKKIADLDVTTDRGIELPPGTLTSNVADVLDDPEISVVIELIGGYEPAKSFVLRAINNGKHVVTANKALLALHGEEIYPAAAAKGVQVLFEAAVGGGIPVISAILGNMAANNFTTVLGILNGTCNYILTRMTQEGADFGDVLKTAQELGYAEADPTFDIEGVDTAHKLALLVSLCFGTKVDFNAIHTEGISSISSADIGFARDFGYKIKLLAIGKRTGDTVEARVHPTMIPVNYPLADVDGVFNAIRFTGDFIGPVMFYGRGAGMDPTASAVVGDVIEIARNIIAGVSRRCAPLGYRDEAVTTLALKPMGEIEGKYYLRFSAVDKPGVLAKISGALGKYDISIESMIQKGRSAGESVPIVIMTHEAREKDIRAALEEIDTFELISEKSRFIRIEDNLE	not soluble
MKEKEKIYRHLTEEEISVLEGNYCQCADWTMVEVADGFDANRCLHVMFSGQIRIGSTRGSHLLPGGLHVPTGINIARLHNCIVGDEVVIFHVNSYLANYRIGDYTRIENIDTIAVTESTSFGNGVEVTVLNETGGREVTITDNLTAQTAYLMAMYRHDKVLTESLAAMARAYAESRRSDMGAIGSHVVIHGCNTIENVCIGDYTEITGASHLCNGSINSKKEAPVSVGYNVVCRDFILCSGSSVTDGATVSHCFVGQGTHLGHLFSAHDSLFFANCQGENGEACAVFAGPYTVSMHK	not soluble
MKEKEYLFSLDMKVRDYECDLQGVVNNSNYQRYMEHTRHEFWESLGDNFGQMHEKGLDAFVYKVTITFKQSLRSGDRFRSCLTCHKKGPKLIFMQDIIREDGVMAARGEVEVVAVQDGVLTRGEYFDVLMKDILSKTTKLEHHHHHH	soluble
